Target: LPA5 receptor (Homo sapiens, UniProt Q9H1C0)
Experiment: Intracellular free Ca2+ (Fura-2AM) in LPA5-expressing B103 cells
Format: cell-based
Parameters: host or cells: B103 rat neuroblastoma cells
Description: LPA family receptors are endogenous to cells of most organs. B103 rat neuroblastoma cells, known as LPA receptor-null cells (Valentine et al., Biochim Biophys Acta 1780. 597-605) were transiently transfected with a plasmid (vector) carrying one of genes coding for LPA1(edg-2), LPA2(edg-4), LPA3(edg-7), LPA4, LPA5 and LPA6 receptors or a plasmid carrying none of them (empty vector). Two or three days after transfection, the cells are suspended, and made permeable. Then, the permeable cells are treated with Fura-2AM, a fluorescent dye binding to calcium, and then with gintonin, followed by spectrofluorephotometry to examine whether gintonin induces an increase in intracellular free Ca^2+ level. […]

LPA5 receptor, sequence (Q9H1C0 whole entry): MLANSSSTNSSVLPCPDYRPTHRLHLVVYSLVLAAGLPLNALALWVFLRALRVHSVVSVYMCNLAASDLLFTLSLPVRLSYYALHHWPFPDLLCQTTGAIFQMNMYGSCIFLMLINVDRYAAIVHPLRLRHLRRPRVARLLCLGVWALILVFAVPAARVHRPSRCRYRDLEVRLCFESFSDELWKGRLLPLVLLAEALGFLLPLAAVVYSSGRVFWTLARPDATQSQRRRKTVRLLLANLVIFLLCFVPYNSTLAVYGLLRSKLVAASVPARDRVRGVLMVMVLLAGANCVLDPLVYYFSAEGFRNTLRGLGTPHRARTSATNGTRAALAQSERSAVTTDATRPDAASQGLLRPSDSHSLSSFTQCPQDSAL

B1: gintonin: ginseng-derived glycolipoprotein; structural protein of ginseng major latex-like protein (MLP151) and ribonuclease-like storage proteins; crude gintonin used in tests (protein)
chain 1: MGLTGKLICQTGIKSDGDVFHELFGTRPHHVPNITPANIQGCDLHEGEFGKVGSVVIWNYSIDGNAMIAKEEIVAIDEEDKSVTFKVVEGHLFEEFKSIVFSVHVDTKGEDNLVTWSIDYEKLNESVKDPTSYLDFLLSVTRDIEAHHLPK
chain 2: RSDYPWAMFALRLQWPAGFCEVNNACDTKSLLNTFTIHGLYPYNAKGTPALYCDGTAFDVNSVSDFLAEMHLAWPSHETNTEDIQFWEHEWKKHGRCSEALLKQTDYFRTALAFRKAFDIVGLLNQEGIYPNNDLYRPKMIKEAIKKHLNAVPEIDFTKNENSEYVLTDINVCVNQQATRFVDCPTDDATDDYRLKFVRLPSKMKFADPRTNSII
EC50 (LPA5 receptor, B103 cells, read-out: EC50, LPA receptor-mediated intracellular calcium increase): 0.046 ± 0.003 nM | increase in intracellular calcium level (gintonin 1 μg/ml, LPA5-expressing B103 cells): 297.5 ± 21.8 µM

From patent US20140234868A1, “USE FOR GLYCOLIPOPROTEIN GINTONIN, ISOLATED AND IDENTIFIED FROM GINSENG, AS A NATURAL MEDICAL-PLANT DERIVED LIGAND” (KONKUK UNIVERSITY INDUSTRIAL COOPERATION CORP., priority 2011, published 2014)
